From US20090203610A1, “METHODS OF TREATING OBESITY OR DIABETES USING NT-4/5” (RINAT NEUROSCIENCE CORPORATION, priority 2004, published 2009) come the findings set out here.

Data set [1] relates to db/db mice. Put plainly: Body weight, daily then intermittent s.c. dosing to day 29 in db/db mice (Example 2). It is filed as in vivo. The procedure:
Female db/db mice (12 weeks old) were divided into four groups and were subcutaneously injected with vehicle (PBS) or NT-4/5 at doses of 2 mg/kg, 5 mg/kg, or 10 mg/kg daily from day 0 to day 4, and then on day 8, day 11, day 15, day 18, day 22, day 25, and day 29. […] In addition, the body weights in NT-4/5 in all treated groups continued to be reduced during the treatment period.

Data set [2] deals with DIO mice. As to the kind of experiment: Glucose, triglyceride and oral glucose tolerance in DIO mice (Example 5). The class given is in vivo. The settings on record: 2 and 10 mg/kg. The method, then:
Test animals: Mice with diet induced obesity (DIO) from Jackson Laboratory were used in this study. El-Haschimi, J. Clin. Invest. 105:1827-1832 (2000); Steppan, Nature 409:307-312 (2001). 23 male C57BL/6J mice were weaned at 4 weeks of age. Immediately after weaning they were put on about 58% high fat diet ([…], Research Diet) through out the study. The DIO mice at 13 weeks of age weighing in the range of 28-40 g were used in this study. Older mice at 22-24 weeks of age were also used.
Administration of NT-4/5: NT-4/5 used in this study was obtained from Genentech. The mice were divided into 3 groups of equivalent body weight and baseline blood glucose distribution (7-8 mice per group). Each group received from day 1 to day 5, from day 8 to day 12, from day 15 to 16 a daily subcutaneous dose of either vehicle, 2 mg/kg or 10 mg/kg of NT-4/5, respectively. Five days prior to the treatment started (day −5), a baseline blood samples were collected for measuring glucose and triglyceride. Subsequent to the treatment started (day 1), blood glucose and triglyceride were measured once a week. Body weight, food intake were monitored 5 days per week through out the entire study. From days 57-59, the DIO mice received a daily injection of NT-4/5 at 2 or 10 mg/kg respectively. They were fasted overnight (for 16 hours) before fasting glucose levels were measured and the oral glucose tolerance test was conducted with a load of 2 grams of glucose/kg of body weight.

Data set [3] deals with DIO mice. As to the kind of experiment: Body weight after intravenous NT-4/5 in DIO mice, separate study (Example 5). The class given is in vivo. The settings on record: i.v. 5 mg/kg on day 1 and day 4. An excerpt:
Two way ANOVA followed by Bonferroni's post-test were used for statistical analysis.

The test system of the next data set is Sprague-Dawley rats. Put plainly: Heat/thermal hyperalgesia, latency for foot withdrawal (Example 13). The class given is in vivo. The procedure:
To test whether NT-4/5 elicits pain in animals after NT-4/5 administration, a heat/thermal hyperalgesia animal model was used for testing. […] Then the latency for foot withdrawal in response to a constant radiant heat source was measured. See, Hargreaves et al., Neurology 48:501-505 (1997); Shu et al., Pain 80:463-470 (1999).

A further data set addresses T1, human TrkA (Homo sapiens, UniProt P04629).
T1 construct: expressed in transfected cells
As to the kind of experiment: Receptor tyrosine phosphorylation in trkA expressing cell line. It is filed as cell-based. The text has this:
Assays of TrkB specific activation by pegylated NT-4/5: Stable cell lines expressing human TrkA, TrkB or TrkC were used to determine the functional activity, i.e. receptor phosphorylation, of NT-4/5 and pegylated NT-4/5 as previously described (Sadick et al. Experimental Cell Research 234: 354-361, 1997).
Assays of TrkB specific activation by pegylated NT-4/5: Stable cell lines expressing human TrkA, TrkB or TrkC were used to determine the functional activity, i.e. receptor phosphorylation, of NT-4/5 and different forms of pegylated NT-4/5 as previously described (Sadick et al. Experimental Cell Research 234: 354-361, 1997).

In data set [4] the test system is db/db mice. Put plainly: Non-fasting serum glucose after single injection in db/db mice (Example 7). It is filed as in vivo. The settings on record: after 4 days; single subcutaneous injection, 5 mg/kg. The procedure:
(§1) Test animals: 30 female db/db mice at 7 weeks of age weighing in the range of 27-34 g were used in this study.
(§2) Administration of NT-4/5 and pegylated NT-4/5: Wild type NT-4/5 was obtained from Genentech Inc. The mice were divided into 5 groups of equivalent body weight distribution (6 mice per group). Each group received on the first day (day 1) of the study one and the only dose of either vehicle, 5 mg/kg of NT-4/5 produced as described above, 5 mg/kg of 2PEG-NT4-G1S, or 5 mg/kg of 1PEG-NT4-G1S. 2PEG-NT4-G1S represents one PEG molecule was conjugated to each NT-4/5 monomer in a NT-4/5 dimer, and 1PEG-NT4-G1S represents one PEG molecule was conjugated to only one monomer of the NT-4/5 dimer. 2PEG-NT4-G1S and 1PEG-NT4-G1S were separated by ion exchange. Four days before starting the treatment (day −4), blood samples were collected from the mice as described previously for the determination of baseline levels of serum glucose. On day 4 after the treatment started, blood samples were collected again to determine serum glucose level. Body weight and food intake were monitored 5 days a week through out the entire study.

Data set [5] has as its system db/db mice. As to the kind of experiment: Body weight after single injection of NT-4/5 or pegylated NT-4/5 in db/db mice (Example 7, Table 21). The settings on record: for Body weight expressed in percentage of baseline value: single 5 mg/kg dose on day 1. It is filed as in vivo. The method, then: as §1, §2
For data set [6], the system named is db/db mice. Put plainly: Daily food intake after single injection of NT-4/5 or pegylated NT-4/5 in db/db mice (Example 7, Table 22). The settings on record: for Daily food intake: single s.c. injection 5 mg/kg, db/db mice, mean. It is filed as in vivo. The method, then:
as §1, §2

Where [7] appears, read: DIO mice 12-16 weeks of age, not diabetic.
Where [8] appears, read: DIO mice 22-24 weeks of age, overt diabetes.
Where [9] appears, read: single subcutaneous injection, 5 mg/kg, significantly.

T1 sequence (P04629 33-796): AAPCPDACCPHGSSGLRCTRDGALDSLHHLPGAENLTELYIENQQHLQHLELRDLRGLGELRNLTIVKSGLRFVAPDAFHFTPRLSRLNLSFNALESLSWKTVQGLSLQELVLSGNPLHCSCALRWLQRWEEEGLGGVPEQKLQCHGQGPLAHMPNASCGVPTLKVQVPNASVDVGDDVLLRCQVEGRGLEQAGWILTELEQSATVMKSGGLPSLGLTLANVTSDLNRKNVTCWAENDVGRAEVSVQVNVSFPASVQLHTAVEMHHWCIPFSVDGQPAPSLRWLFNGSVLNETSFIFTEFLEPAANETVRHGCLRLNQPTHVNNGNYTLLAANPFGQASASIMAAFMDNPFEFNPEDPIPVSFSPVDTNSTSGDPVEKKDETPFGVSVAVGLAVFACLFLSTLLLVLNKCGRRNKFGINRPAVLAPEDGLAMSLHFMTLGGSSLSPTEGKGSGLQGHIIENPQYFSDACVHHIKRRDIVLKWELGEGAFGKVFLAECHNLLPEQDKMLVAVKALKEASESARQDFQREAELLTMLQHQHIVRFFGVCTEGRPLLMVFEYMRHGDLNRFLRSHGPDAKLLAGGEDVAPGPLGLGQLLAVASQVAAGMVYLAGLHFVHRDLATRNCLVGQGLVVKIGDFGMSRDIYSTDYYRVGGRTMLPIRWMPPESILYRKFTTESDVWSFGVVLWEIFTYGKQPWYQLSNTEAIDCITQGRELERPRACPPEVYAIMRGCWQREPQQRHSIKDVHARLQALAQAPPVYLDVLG

B1: NT-4/5: mature human neurotrophin-4/5 (SEQ ID NO:1), obtained from Genentech or produced in E. coli (protein, listed as Homo sapiens)
chain: GVSETAPASRRGELAVCDAVSGWVTDRRTAVDLRGREVEVLGEVPAAGGSPLRQYFFETRCKADNAEEGGPGAGGGGCRGVDRRHWVSECKAKQSYVRALTADAQGRVGWRWIRIDTACVCTLLSRTGRA
With B1, the “body weight” value in the data set with db/db mice [1] (2, 5 or 10 mg/kg s.c. daily day 0-4, then days 8, 11, 15, 18, 22, 25, 29) was “reduced body weight in a dose dependent manner”. Also, the body weight reduction result with db/db mice [1] (day 31, 5 mg/kg and 10 mg/kg groups) was “about 20%”. Moreover, the non-fasting glucose levels entry in the data set on DIO mice [2] (setting [7]) was “did not affect”. For the same molecule, the non-fasting triglyceride levels result with DIO mice [2] (setting [7]) was “did not affect”. The fasting glucose level entry in the data set with DIO mice [2] (setting [8]) was “significantly reduced fasting glucose level”. Moreover, the glucose tolerance result with DIO mice [2] (setting [8]) is reported as “improved glucose tolerance”. The “reduction of body weight” value in the data set with DIO mice [3] is “about 5%”. In the data set with DIO mice [3], the “time reduced body weight maintained after the second dose” value is “at least 10 days”. For the same molecule, the pain entry in the data set with Sprague-Dawley rats (2 mg/kg) was “did not cause pain”. For the same molecule, in the data set with Sprague-Dawley rats (2 mg/kg s.c., 3, 5 and 24 hour after administration), the “changes of latency for foot withdrawal in response to radiant heat” value is “No statistically significant changes”. The “receptor tyrosine phosphorylation of trkA-expressing cell line” value with human TrkA is listed as “did not increase receptor tyrosine phosphorylation”. Besides, the “non-fasting serum glucose levels” value in the data set on db/db mice [4] is listed as “showed a tendency to reduce”. Moreover, the “Body weight expressed in percentage of baseline value” was 100.0 % of baseline with db/db mice [5] (Day 1), 97.7 % of baseline in the data set with db/db mice [5] (Day 2), 100.5 % of baseline in the data set with db/db mice [5] (Day 3) and 101.7 % of baseline with db/db mice [5] (Day 4). Also, the “body weight growth” value in the data set on db/db mice [5] (setting [9]) is listed as “reduced the body weight growth”. The Daily food intake stood at 6.6 g/day in the data set with db/db mice [6] (Day 1), 5.2 g/day in the data set with db/db mice [6] (Day 2), 7.3 g/day in the data set with db/db mice [6] (Day 3) and 6.3 g/day with db/db mice [6] (Day 4). The “food intake” value in the data set with db/db mice [6] (setting [9]) was “reduced”.
